The values that follow come from PMC10021056 (Nature Communications, 2023).

B1: Fab 2D3 (Fab, V domains shown)
VH: QVQLKQSGPGLVAPSQSLSITCTVSGFSLTSYALSWVRQPPGKGLEWLGVIWVGGVTNYNSALKSRLTISKDNSKSQVFLKMNSLQSEDTARYYCASRHLSTGAMDYWGQGTSVTVSA
VL: DVLMTQSPLSLPVSLGDQASISCRSSQSIVHSNGDTYFEWYLQKPGQSPKLLIYKVSNRFSGVPNRFSGSGSGTDFTLKISRVEAEDLGVYYCFQGSYVPYTFGGGTKLEIK
notes: recombinant Fab of m5
B2: Fab 1H1 (Fab, V domains shown)
VH: VQLQQSGAELMRPGASMKISCKATGYTFSSYWIDWVKQRPGHGLEWIGEILPGSGDTNYNENFKGKAAFTADTSSNTAYMQLTSLTSEDSAVFYCARGGRYHGQGFFDYWGQGTTLTVSS
VL: IQMTQSPASLSASVGETVTITCRPSENVHIYLAWYQQKQGKSPQLLVYNAKTLADGVPSRFSGSASGTQFSLKINSLQPEDFGSYYCQHFWSIPYTFGGGTKLEIK
notes: recombinant Fab of m8
B3: Fab 4F6 (Fab, V domains shown)
VH: QVQLQQSGAELVKPGASVKLSCKASGYTFTSNWMHWVKQRPGRGLEWIGRIDPNSGGTKYNEKFKSKATLTVDKPSSTAYMQLSSLTSEDSAVYYCARDGHYAYFDVWAPGTTVTVSS
VL: DIVMTQSQKFMSTSVGDRVSVTCKASQNVGTTVAWYQQKPGQSPNALIYSASYRYTGVPDRFTGSGSGTDFTLTISNVQSEDLAEYFCQQYNRYPWTFGGGTKLEIK
notes: recombinant Fab of m13
B4: Fab 1A9 (Fab, V domains shown)
VH: QVQLQQSGAELVRPGTSVKISCKASGYTFTNYWLGWVKQRPGHGLEWIGDIYRGGGYTNYNEKFKGKATLTADTSSSTAYMQLSSLTSEDSAVYFCATRDGYFDYWGQGTTLTVSS
VL: DIQMTQSSSSFSVSLGDRTTITCKASEDIYNRLAWFQQKPGNAPRLLISGATSLETGVPSRFSGSGSGKDYTLSITSLQTEDVATYYCQQYWSSPWTFGGGTKLEIK
notes: recombinant Fab of m7
B5: Fab 1F2 (Fab, V domains shown)
VH: EVQLQQSGPELVKPGVSLKISCKASGYSFTDYTMNWVKQSHGKNLEWIGLINPYIGGTRYNQKFKGKATLTVDKSSSTAYLELLSLTSEDSAVYYCARFSGSSNRAMDYWGQGTSVTVSS
VL: DIQMTQSPASLSASVGETVTITCGASENIYGALNWYQRKQGKSPQLLIYGATNLADGMSSRFSGSGSARQYSLKISSLHPDDVATYYCQNVLSIPWTFGGGTKLEIK
notes: recombinant Fab of m12
B6: Fab 2B12 (Fab, V domains shown)
V domain 1: EVQLVESGGGLVQPKGSLKLSCAASGFIFNTYAMHWVRQAPGKGLEWVARIRSKSSNYATYYADSVKDRFTISRDDSQSMLYLQMNNLKTEDTAMYYCVREGGYYFDYWGQGTTLTFSA
V domain 2: DIVMSQSPSSLAVSVGEKVTMSCKSSQSLLHVSNQKNYLAWYQQKPGQSPKLLIYWASTRESGVPDRFTGSGSGTDFTLTISSVKAEDLAVYYCQQYYSYPWPFGGGTKLKSN
notes: recombinant Fab of m9
B7: Fab 1H8 (Fab, V domains shown)
VH: EVQLQQSGPELVKPGASVKISCKASGYSFTGYTMNWVKQSHGKNLEWIGLINPFIGGTRYNQKFKGKATLTVDKSSRTAYMELLSLTSEDSAVYYCAREADYDWYFDVWGAGTTVTVSS
VL: DIQMTQTTSSLSASLGDRVTISCRASQDISNYLHWYQQKPDGTVNLLIFYTSRLHSGVPSRFSGSGSGTDYSLTISNLEQEDIATYFCQQGNTLPRTFGGGTKLEIK
notes: recombinant Fab of m6
B8: Fab 1H1 (Fab, V domains shown)
VH: VQLQQSGAELMRPGASMKISCKATGYTFSSYWIDWVKQRPGHGLEWIGEILPGSGDTNYNENFKGKAAFTADTSSNTAYMQLTSLTSEDSAVFYCARGGRYHGQGFFDYWGQGTTLTVSS
VL: IQMTQSPASLSASVGETVTITCRPSENVHIYLAWYQQKQGKSPQLLVYNAKTLADGVPSRFSGSASGTQFSLKINSLQPEDFGSYYCQHFWSIPYTFGGGTKLEIK
B9: Fab 4F6 (Fab, V domains shown)
VH: QVQLQQSGAELVKPGASVKLSCKASGYTFTSNWMHWVKQRPGRGLEWIGRIDPNSGGTKYNEKFKSKATLTVDKPSSTAYMQLSSLTSEDSAVYYCARDGHYAYFDVWAPGTTVTVSS
VL: DIVMTQSQKFMSTSVGDRVSVTCKASQNVGTTVAWYQQKPGQSPNALIYSASYRYTGVPDRFTGSGSGTDFTLTISNVQSEDLAEYFCQQYNRYPWTFGGGTKLEIK
B10: Fab 1F2 (Fab, V domains shown)
VH: EVQLQQSGPELVKPGVSLKISCKASGYSFTDYTMNWVKQSHGKNLEWIGLINPYIGGTRYNQKFKGKATLTVDKSSSTAYLELLSLTSEDSAVYYCARFSGSSNRAMDYWGQGTSVTVSS
VL: DIQMTQSPASLSASVGETVTITCGASENIYGALNWYQRKQGKSPQLLIYGATNLADGMSSRFSGSGSARQYSLKISSLHPDDVATYYCQNVLSIPWTFGGGTKLEIK
B11: Fab 2B12 (Fab, V domains shown)
V domain 1: EVQLVESGGGLVQPKGSLKLSCAASGFIFNTYAMHWVRQAPGKGLEWVARIRSKSSNYATYYADSVKDRFTISRDDSQSMLYLQMNNLKTEDTAMYYCVREGGYYFDYWGQGTTLTFSA
V domain 2: DIVMSQSPSSLAVSVGEKVTMSCKSSQSLLHVSNQKNYLAWYQQKPGQSPKLLIYWASTRESGVPDRFTGSGSGTDFTLTISSVKAEDLAVYYCQQYYSYPWPFGGGTKLKSN

The first assay deals with T1, prefusion Hendra virus (HeV) F (Hendra virus, reference strain …, stabilised).
T1 chain: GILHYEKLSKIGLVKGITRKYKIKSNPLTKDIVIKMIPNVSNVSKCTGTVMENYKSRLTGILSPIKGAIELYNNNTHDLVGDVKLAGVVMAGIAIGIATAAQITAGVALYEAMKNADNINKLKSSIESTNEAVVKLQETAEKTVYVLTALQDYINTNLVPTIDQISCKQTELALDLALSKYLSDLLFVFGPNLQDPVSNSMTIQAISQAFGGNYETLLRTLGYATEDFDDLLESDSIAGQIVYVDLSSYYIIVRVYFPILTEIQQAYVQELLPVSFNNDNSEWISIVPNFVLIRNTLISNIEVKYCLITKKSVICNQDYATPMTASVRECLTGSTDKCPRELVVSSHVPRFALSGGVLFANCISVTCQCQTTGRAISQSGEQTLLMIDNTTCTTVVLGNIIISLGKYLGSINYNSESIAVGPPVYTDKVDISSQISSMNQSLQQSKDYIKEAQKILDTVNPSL
Kind of assay: BLI. As to conditions: both partners purified.
With B1, the binding result is “binds”. The same measure, in the same setting: for B2 the value was “binds”. In the case of B3, the binding result is recorded as “binds”. Still for that read-out and setting: for B4 the value was “binds”; for B5, “binds”; for B6, “binds”. Still for that read-out and setting: for B7 the value was “binds”.

Another assay has as its target T2, prefusion Hendra virus (HeV) F protein (Hendra virus, reference strain …).
T2 chain: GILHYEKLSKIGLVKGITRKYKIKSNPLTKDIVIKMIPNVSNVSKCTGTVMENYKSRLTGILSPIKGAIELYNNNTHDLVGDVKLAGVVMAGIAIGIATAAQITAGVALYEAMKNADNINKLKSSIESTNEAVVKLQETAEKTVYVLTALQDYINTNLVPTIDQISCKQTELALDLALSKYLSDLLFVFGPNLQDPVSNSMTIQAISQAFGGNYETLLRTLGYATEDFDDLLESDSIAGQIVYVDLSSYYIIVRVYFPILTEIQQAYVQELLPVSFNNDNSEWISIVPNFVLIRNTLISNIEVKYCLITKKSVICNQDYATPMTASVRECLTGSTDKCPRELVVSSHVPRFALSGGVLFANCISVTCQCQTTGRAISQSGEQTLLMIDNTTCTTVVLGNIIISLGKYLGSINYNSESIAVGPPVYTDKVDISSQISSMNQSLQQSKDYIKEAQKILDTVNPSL
Kind of assay: BLI. As to conditions: both partners purified.
In the case of B8, the binding result was “binds”. The same measure, in the same setting: next, B9: “binds”. Regarding B10, the binding result was “binds”. The same measure, in the same setting: next, B11: “binds”.
